# In paper PMC6048173, “Structural Insight into Substrate Specificity of 3-Hydroxypropionyl-Coenzyme A Dehydratase from Metallosphaera sedula” (Scientific Reports, 2018):
# Assays:
# [1] = molecular target: 3-Hydroxypropionyl-CoA dehydratase from Metallosphaera sedula (Metallosphaera sedula); assay: crystal structure; Ms3HPCD in complex with CoA, 1.8 Å, space group P21, six monomers in the asymmetric unit; crystals from 10% PEG 8000, 0.1 M sodium-potassium phosphate pH 6.2, 0.2 M NaCl, 10 mM EDTA, 20 °C
# [2] = molecular target: 3-Hydroxypropionyl-CoA dehydratase from Metallosphaera sedula (Metallosphaera sedula); assay: SEC; analytical, Superdex increase 200 10/300 GL, 40 mM Tris-HCl pH 8.0, 150 mM NaCl; 1 mL of 1 mg/mL protein; calibrated with ferritin, conalbumin, carbonic anhydrase, ribonuclease A
# [3] = molecular target: T1, 3-Hydroxypropionyl-CoA dehydratase (Ms3HPCD; 3HPCD; 3-HPCD) (Metallosphaera sedula, UniProt A4YI89); assay: X-ray crystal structure, […] Å; conditions: co-purified, CoA not added during expression or purification; substrate binding site between two monomers; crystals at pH 6.2, 20 °C
# T1 construct: gene Msed_2001; Met1-Lys256, C-terminal 6xHis tag (pET30a), expressed in E. coli BL21(DE3)-T1R; hexamer (dimer of trimers)
# T1 sequence (A4YI89 whole entry): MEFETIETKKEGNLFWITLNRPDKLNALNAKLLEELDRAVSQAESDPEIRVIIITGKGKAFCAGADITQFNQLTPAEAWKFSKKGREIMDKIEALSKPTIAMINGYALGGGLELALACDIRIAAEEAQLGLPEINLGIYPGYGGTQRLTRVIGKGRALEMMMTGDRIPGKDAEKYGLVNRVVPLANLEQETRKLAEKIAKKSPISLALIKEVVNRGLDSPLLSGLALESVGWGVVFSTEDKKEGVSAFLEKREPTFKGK
Compound,stoichiometry N [1],stoichiometry N [2],"X-ray crystal structure, 1.8 Å [3]"
3-Hydroxypropionyl-CoA dehydratase from Metallosphaera sedula (enzyme),6,6,
CC(C)(COP(=O)(O)OP(=O)(O)OC[C@H]1O[C@@H](n2cnc3c(N)ncnc32)[C@H](O)[C@@H]1OP(=O)(O)O)[C@@H](O)C(=O)NCCC(=O)NCCS [CoA],,,"In our current structure, the CoA molecule is tightly bound at the substrate binding site"
